Data: paper PMC10786891, “Massively parallel profiling of RNA-targeting CRISPR-Cas13d”
Substitutions are numbered along the chain they refer to. Names and notes keep the numbering of the source.

T1: EsCas13d, nuclease-dead (Eubacterium siraeum, UniProt B0MS50, R295A;H300A;R849A;H854A)
T1 sequence: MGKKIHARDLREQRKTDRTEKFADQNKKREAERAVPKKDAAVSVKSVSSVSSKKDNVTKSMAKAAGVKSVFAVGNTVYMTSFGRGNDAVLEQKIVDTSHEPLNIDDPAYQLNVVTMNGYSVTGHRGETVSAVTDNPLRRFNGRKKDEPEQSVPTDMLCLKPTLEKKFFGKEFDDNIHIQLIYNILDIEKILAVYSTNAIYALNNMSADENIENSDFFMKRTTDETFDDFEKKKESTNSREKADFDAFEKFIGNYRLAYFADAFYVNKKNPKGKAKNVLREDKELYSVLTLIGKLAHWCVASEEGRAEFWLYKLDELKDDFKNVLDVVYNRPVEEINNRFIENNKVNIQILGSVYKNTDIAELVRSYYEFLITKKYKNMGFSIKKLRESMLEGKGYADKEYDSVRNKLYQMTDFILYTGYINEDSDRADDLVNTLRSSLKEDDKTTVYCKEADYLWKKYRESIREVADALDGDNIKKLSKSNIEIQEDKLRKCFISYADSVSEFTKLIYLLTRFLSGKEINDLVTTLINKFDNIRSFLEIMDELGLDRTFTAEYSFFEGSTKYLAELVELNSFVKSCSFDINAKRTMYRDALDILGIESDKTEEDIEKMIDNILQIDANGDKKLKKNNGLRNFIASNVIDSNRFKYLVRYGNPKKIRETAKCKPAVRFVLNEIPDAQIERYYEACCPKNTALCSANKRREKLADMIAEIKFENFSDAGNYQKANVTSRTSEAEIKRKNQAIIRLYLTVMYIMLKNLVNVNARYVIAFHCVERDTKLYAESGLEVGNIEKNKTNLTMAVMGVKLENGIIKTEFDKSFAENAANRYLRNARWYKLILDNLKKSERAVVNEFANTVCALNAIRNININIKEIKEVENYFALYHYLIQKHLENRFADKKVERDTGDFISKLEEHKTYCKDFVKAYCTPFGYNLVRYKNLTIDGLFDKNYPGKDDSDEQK

B1: target 1 insA 3' of 5,insG 3' of 1 (mixed)
RNA 1: CACCCGUGCAAAAAUGCAGGGGUCUAAAACUGAGCGGAUAACCUCUCUAUGG
RNA 2: GGGAAUGGAUCCACAUCUACGAAUUCGUACCAUAGAGAGGUUAUCCGACUCAGCCGAGAUCGGAAGAGCACACGU
B2: target 1 insA 3' of 5,insA 3' of 2 (mixed)
RNA 1: B1 RNA 1
RNA 2: B1 RNA 2 with G53A
B3: target 1 insU 3' of 21,insC 3' of 5 (mixed)
RNA 1: B1 RNA 1
RNA 2: GGGAAUGGAUCCACAUCUACGAAUUCGUACCUAUAGAGAGGUUAUCCGCCUCACCGAGAUCGGAAGAGCACACGU
B4: target 3 G3A,U8G (mixed)
RNA 1: CACCCGUGCAAAAUUGCAGGGGUCUAAAACGACCUGAAUAUUUCAGAUCAAA
RNA 2: GGGAAUGGAUCCACAUCUACGAAUUCGUUUUUGAUCUGAAAUAGUCAGAUCUGCAGAUCGGAAGAGCACACGU
B5: target 3 insG 3' of 6,insG 3' of 2 (mixed)
RNA 1: B4 RNA 1
RNA 2: GGGAAUGGAUCCACAUCUACGAAUUCGUUUUUGAUCUGAAAUAUUCGAGGUGCUGCAGAUCGGAAGAGCACACGU
B6: target 3 insC 3' of 9,insG 3' of 2 (mixed)
RNA 1: B4 RNA 1
RNA 2: B5 RNA 2 with U44C, C46U, G47C
B7: target 3 complement block 13-15 (mixed)
RNA 1: B4 RNA 1
RNA 2: B4 RNA 2 with U37A, G38C, A39U, G44U, A49G
B8: target 3 insA 3' of 8,insA 3' of 2 (mixed)
RNA 1: B4 RNA 1
RNA 2: B5 RNA 2 with U45A, C46U, G47C, G52A
B9: target 3 insU 3' of 22 (mixed)
RNA 1: B4 RNA 1
RNA 2: GGGAAUGGAUCCACAUCUACGAAUUCGUUUUUUGAUCUGAAAUAUUCAGGUCUGCAGAUCGGAAGAGCACACGU
B10: target 3 insG 3' of 9,insU 3' of 5 (mixed)
RNA 1: B4 RNA 1
RNA 2: B5 RNA 2 with U44G, C46U, G47C, G49U, U51G, G52U
B11: target 3 G3U,C6U (mixed)
RNA 1: B4 RNA 1
RNA 2: B4 RNA 2 with G44U, C46U, A49U
B12: target 3 G4U,U8A (mixed)
RNA 1: B4 RNA 1
RNA 2: B4 RNA 2 with G44A, G48U, A49G
B13: target 3 complement block 1-3 (mixed)
RNA 1: B4 RNA 1
RNA 2: B4 RNA 2 with G44U, A49C, U50A, C51G
B14: target 3 C1U,U22G (mixed)
RNA 1: B4 RNA 1
RNA 2: B4 RNA 2 with U30G, G44U, A49G, C51U
B15: target 3 U8A,A11C (mixed)
RNA 1: B4 RNA 1
RNA 2: B4 RNA 2 with A41C, G44A, A49G
B16: target 3 G4C,U22G (mixed)
RNA 1: B4 RNA 1
RNA 2: B4 RNA 2 with U30G, G44U, G48C, A49G
B17: target 3 insC 3' of 9,insA 3' of 7 (mixed)
RNA 1: B4 RNA 1
RNA 2: B5 RNA 2 with U44C, C46U, G47A, A48C, G49A, U51G, G52U
B18: target 3 U7C,U8A (mixed)
RNA 1: B4 RNA 1
RNA 2: B4 RNA 2 with G44A, U45C, A49G
B19: target 3 del2,del19 (mixed)
RNA 1: B4 RNA 1
RNA 2: GGGAAUGGAUCCACAUCUACGAAUUCGUUUUUAUCUGAAAUAUUCAGGCUGCAGAUCGGAAGAGCACACGU
B20: target 3 A12G,A18G (mixed)
RNA 1: B4 RNA 1
RNA 2: B4 RNA 2 with A34G, A40G, G44U, A49G
B21: target 3 G4A,U7A (mixed)
RNA 1: B4 RNA 1
RNA 2: B4 RNA 2 with G44U, U45A, G48A, A49G
B22: target 3 G3U,C6A (mixed)
RNA 1: B4 RNA 1
RNA 2: B4 RNA 2 with G44U, C46A, A49U
B23: target 3 U2A,G3C (mixed)
RNA 1: B4 RNA 1
RNA 2: B4 RNA 2 with G44U, A49C, U50A
B24: target 3 C6G,U22A (mixed)
RNA 1: B4 RNA 1
RNA 2: B4 RNA 2 with U30A, G44U, C46G, A49G
B25: target 3 U2A,A13U (mixed)
RNA 1: B4 RNA 1
RNA 2: B4 RNA 2 with A39U, G44U, A49G, U50A
B26: target 3 G4U,A5G (mixed)
RNA 1: B4 RNA 1
RNA 2: B4 RNA 2 with G44U, A47G, G48U, A49G
B27: target 3 G4U,A11G (mixed)
RNA 1: B4 RNA 1
RNA 2: B4 RNA 2 with A41G, G44U, G48U, A49G
B28: target 3 U2G,A12U (mixed)
RNA 1: B4 RNA 1
RNA 2: B4 RNA 2 with A40U, G44U, A49G, U50G
B29: target 3 insG 3' of 5,insA 3' of 4 (mixed)
RNA 1: B4 RNA 1
RNA 2: B5 RNA 2 with G47A, A48G, G50A, U51G, G52U
B30: target 3 U2G,G4U (mixed)
RNA 1: B4 RNA 1
RNA 2: B4 RNA 2 with G44U, G48U, A49G, U50G
B31: target 3 U7A,U8A (mixed)
RNA 1: B4 RNA 1
RNA 2: B4 RNA 2 with G44A, U45A, A49G
B32: target 3 C6A,U7A (mixed)
RNA 1: B4 RNA 1
RNA 2: B4 RNA 2 with G44U, U45A, C46A, A49G
B33: target 3 C6G,U8C (mixed)
RNA 1: B4 RNA 1
RNA 2: B4 RNA 2 with G44C, C46G, A49G
B34: target 3 U2A,U7A (mixed)
RNA 1: B4 RNA 1
RNA 2: B4 RNA 2 with G44U, U45A, A49G, U50A

Target: T1, EsCas13d, nuclease-dead
Experiment: crRNA (strand 1, pre-loaded); Mg2+; 40 mM Tris-HCl pH 7.5, 150 mM NaCl, 6 mM MgCl2, 1 mM DTT, 0.1% Tween-20, 0.2 mg/ml BSA; 25 C; 10 min per concentration, then washed
Conditions: tags: His6-TwinStrep-SUMO cleaved; N-terminal SNAP kept (SNAP-Surface 488); label: 3' end held by stalled T7 RNA polymerase

Binder	Kd
B1	5.4 ± 0.4 nM
B2	7.8 ± 0.7 nM
B3	50 ± 10 nM
B4	108 ± 33.5 nM
B5	16.3 ± 3 nM
B6	81.5 ± 19 nM
B7	67.8 ± 31.8 nM
B8	59.5 ± 18.5 nM
B9	17.4 ± 1.8 nM
B10	65.5 ± 9 nM
B11	19.2 ± 1.95 nM
B12	30.2 ± 3.9 nM
B13	23.1 ± 3.9 nM
B14	77.5 ± 21 nM
B15	42 ± 7 nM
B16	85.5 ± 24.5 nM
B17	60.5 ± 12.5 nM

Binder	Kd
B18	114 ± 28 nM
B19	98.5 ± 25 nM
B20	62 ± 13 nM
B21	21.1 ± 2.25 nM
B22	39.7 ± 3.65 nM
B23	23.2 ± 2 nM
B24	26.2 ± 3.5 nM
B25	~91.5 nM
B26	7.04 ± 0.57 nM
B27	43.5 ± 8 nM
B28	46.5 ± 6.5 nM
B29	9.2 ± 1.05 nM
B30	2.11 ± 0.25 nM
B31	83 ± 15.5 nM
B32	46.5 ± 5 nM
B33	74.5 ± 7 nM
B34	13.1 ± 1.7 nM
